From patent publication US20250206823A1 (published 2025)

Biological target: CD33 naturally expressed on HL60 cells (human, UniProt P20138 18-364)
Experiment: FACS

Chain of CD33 naturally expressed on HL60 cells (P20138 18-364): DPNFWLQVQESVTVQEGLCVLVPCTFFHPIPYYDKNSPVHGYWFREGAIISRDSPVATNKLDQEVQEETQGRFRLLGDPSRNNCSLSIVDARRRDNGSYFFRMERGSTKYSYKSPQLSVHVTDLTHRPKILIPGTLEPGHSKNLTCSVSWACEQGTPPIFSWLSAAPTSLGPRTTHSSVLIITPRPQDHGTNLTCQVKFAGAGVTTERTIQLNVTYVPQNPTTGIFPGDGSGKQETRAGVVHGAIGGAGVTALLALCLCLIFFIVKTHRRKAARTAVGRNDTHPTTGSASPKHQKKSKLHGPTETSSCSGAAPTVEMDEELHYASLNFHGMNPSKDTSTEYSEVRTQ

B1: CD33/CD16A bispecific antibody QP411543674368 (FC with L234A/L235A mutation for eliminating function) (bispecific antibody)
scFv: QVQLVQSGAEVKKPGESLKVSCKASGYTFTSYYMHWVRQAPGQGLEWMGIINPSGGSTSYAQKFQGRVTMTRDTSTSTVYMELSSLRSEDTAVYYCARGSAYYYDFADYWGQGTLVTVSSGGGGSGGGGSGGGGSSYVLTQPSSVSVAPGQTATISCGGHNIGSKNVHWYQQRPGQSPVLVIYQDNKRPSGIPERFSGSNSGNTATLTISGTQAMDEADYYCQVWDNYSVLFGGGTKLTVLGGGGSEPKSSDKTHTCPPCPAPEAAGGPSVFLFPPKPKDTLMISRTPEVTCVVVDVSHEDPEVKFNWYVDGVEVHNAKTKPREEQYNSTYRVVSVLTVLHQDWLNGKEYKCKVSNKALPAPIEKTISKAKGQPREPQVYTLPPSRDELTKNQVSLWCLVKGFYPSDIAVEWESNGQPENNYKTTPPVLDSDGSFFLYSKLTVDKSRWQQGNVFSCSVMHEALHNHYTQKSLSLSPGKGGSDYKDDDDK
heavy: QVQLVQSGAEVKKPGESVKVSCKASGYTFTNYGMNWVKQAPGQGLEWMGWINTYTGEPTYADKFQGRVTMTTDTSTSTAYMEIRNLGGDDTAVYYCARWSWSDGYYVYFDYWGQGTSVTVSSASTKGPSVFPLAPSSKSTSGGTAALGCLVKDYFPEPVTVSWNSGALTSGVHTFPAVLQSSGLYSLSSVVTVPSSSLGTQTYICNVNHKPSNTKVDKKVEPKSCDKTHTCPPCPAPEAAGGPSVFLFPPKPKDTLMISRTPEVTCVVVDVSHEDPEVKFNWYVDGVEVHNAKTKPREEQYNSTYRVVSVLTVLHQDWLNGKEYKCKVSNKALPAPIEKTISKAKGQPREPQVYTLPPSREEMTKNQVSLSCAVKGFYPSDIAVEWESNGQPENNYKTTPPVLDSDGSFFLVSKLTVDKSRWQQGNVFSCSVMHEALHNRYTQKSLSLSPGKGGSHHHHHH
light: DIVMTQSPDSLTVSLGERTTINCKSSQSVLDSSTNKNSLAWYQQKPGQPPKLLLSWASTRESGIPDRFSGSGSGTDFTLTIDSPQPEDSATYYCQQSAHFPITFGQGTRLEIKRTVAAPSVFIFPPSDEQLKSGTASVVCLLNNFYPREAKVQWKVDNALQSGNSQESVTEQDSKDSTYSLSSTLTLSKADYEKHKVYACEVTHQGLSSPVTKSFNRGEC
EC50: 11.4 nM
